# Experimental data as given in paper PMC5431086, “The Rational Design of Therapeutic Peptides for Aminopeptidase N using a Substrate-Based Approach” (Scientific Reports, 2017).
# Starred links: 1 amine or outer side, 2 acyl side, 3 side chain; linkers in the order of their positions; H or OH if unused. Positions of bridges follow the written chain, without caps; N, C: chain ends. No end group written: not given here. *: point of attachment. Suc = O=C(CCC(=O)[*:2])[*:1]; Cbz = O=C(OCc1ccccc1)*; For = O=C*
# B1: cyc-LHSPW (peptide)
# peptide: CLHSPWC
# modifications: disulfide 1-7
# B2: AHLFN (peptide)
# peptide: AHLFN
# B3: LHSPW (peptide)
# peptide: LHSPW
# B4: Suc-HSPW (peptide)
# peptide: Suc-HSPW
# B5: Ac-LHSPW (peptide)
# peptide: Ac-LHSPW
# B6: cyc-LDSTF (peptide)
# peptide: CLDSTFC
# modifications: disulfide 1-7
# B7: FYLRE (peptide)
# peptide: FYLRE
# B8: Cbz-HSPW (peptide)
# peptide: Cbz-HSPW
# B9: cyc-AHSPW (peptide)
# peptide: CAHSPWC
# modifications: disulfide 1-7
# B10: PHSPW (peptide)
# peptide: PHSPW
# B11: cyc-LHSP (peptide)
# peptide: CLHSPC
# modifications: disulfide 1-6
# B12: For-HSPW (peptide)
# peptide: For-HSPW
# B13: AHSPW (peptide)
# peptide: AHSPW
# B14: cyc-PHSPW (peptide)
# peptide: CPHSPWC
# modifications: disulfide 1-7
# B15: FSLSK (peptide)
# peptide: FSLSK
# B16: DSTF (peptide)
# peptide: DSTF
# B17: FDWWG (peptide)
# peptide: FDWWG
# B18: ADARK (peptide)
# peptide: ADARK
# B19: cyc-ADARK (peptide)
# peptide: CADARKC
# modifications: disulfide 1-7
# B20: Suc-LHSPW (peptide)
# peptide: Suc-LHSPW
# B21: RDLVD (peptide)
# peptide: RDLVD
# B22: INDFL (peptide)
# peptide: INDFL
# B23: Ac-HSPW (peptide)
# peptide: Ac-HSPW
# B24: DARK (peptide)
# peptide: DARK
# B25: Cbz-LHSPW (peptide)
# peptide: Cbz-LHSPW
# B26: SKSGQ (peptide)
# peptide: SKSGQ
# B27: EHSPW (peptide)
# peptide: EHSPW
# B28: LDSTF (peptide)
# peptide: LDSTF
# B29: EPKVA (peptide)
# peptide: EPKVA
# B30: AHSTF (peptide)
# peptide: AHSTF
# B31: cyc-LHS (peptide)
# peptide: CLHSC
# modifications: disulfide 1-5
# B32: HSPW (peptide)
# peptide: HSPW
# B33: For-LHSPW (peptide)
# peptide: For-LHSPW
# Target: chymotrypsin
# Experiment: enzyme inhibition assay (panel of proteases); cyc-LHSPW tested against a panel of cancer-associated proteases (Fig. 5A); conditions not given
row,Ki,Binder
1,> 100 µM,B1

# Target: recombinant human aminopeptidase N (hAPN) (human) (UniProt P15144)
# Experiment: enzyme inhibition assay (competition with the fluorogenic substrate H-Ala-AMC); 0.1 μM APN, 100 μM H-Ala-AMC, 100 mM Tris pH 7.2, Brij 35 0.0002% w/v, 37 °C, triplicate; inhibition competitive, Ki from the IC50 by the Cheng-Prusoff equation
IC50,Ki,Binder
> 500 µM,,B2
10.6 µM,,B3
,> 500 µM,B4
,> 500 µM,B5
,> 500 µM,B6
> 500 µM,,B7
,> 500 µM,B8
,> 500 µM,B9
82.5 µM,,B10
,121 µM,B11
,> 500 µM,B12
9.4 µM,,B13
,24.7 µM,B1
,> 500 µM,B14
> 500 µM,,B15
> 500 µM,,B16
> 500 µM,,B17

IC50,Ki,Binder
> 500 µM,,B18
,> 500 µM,B19
,> 500 µM,B20
> 500 µM,,B21
> 500 µM,,B22
,> 500 µM,B23
> 500 µM,,B24
,> 500 µM,B25
> 500 µM,,B26
115 µM,,B27
> 500 µM,,B28
> 500 µM,,B29
> 500 µM,,B30
,> 500 µM,B31
43.3 µM,,B32
,> 500 µM,B33

# Target: aminopeptidase N on the surface of PC3 cells (human (endogenous in PC3)) (UniProt P15144)
# Sequence (P15144 whole entry): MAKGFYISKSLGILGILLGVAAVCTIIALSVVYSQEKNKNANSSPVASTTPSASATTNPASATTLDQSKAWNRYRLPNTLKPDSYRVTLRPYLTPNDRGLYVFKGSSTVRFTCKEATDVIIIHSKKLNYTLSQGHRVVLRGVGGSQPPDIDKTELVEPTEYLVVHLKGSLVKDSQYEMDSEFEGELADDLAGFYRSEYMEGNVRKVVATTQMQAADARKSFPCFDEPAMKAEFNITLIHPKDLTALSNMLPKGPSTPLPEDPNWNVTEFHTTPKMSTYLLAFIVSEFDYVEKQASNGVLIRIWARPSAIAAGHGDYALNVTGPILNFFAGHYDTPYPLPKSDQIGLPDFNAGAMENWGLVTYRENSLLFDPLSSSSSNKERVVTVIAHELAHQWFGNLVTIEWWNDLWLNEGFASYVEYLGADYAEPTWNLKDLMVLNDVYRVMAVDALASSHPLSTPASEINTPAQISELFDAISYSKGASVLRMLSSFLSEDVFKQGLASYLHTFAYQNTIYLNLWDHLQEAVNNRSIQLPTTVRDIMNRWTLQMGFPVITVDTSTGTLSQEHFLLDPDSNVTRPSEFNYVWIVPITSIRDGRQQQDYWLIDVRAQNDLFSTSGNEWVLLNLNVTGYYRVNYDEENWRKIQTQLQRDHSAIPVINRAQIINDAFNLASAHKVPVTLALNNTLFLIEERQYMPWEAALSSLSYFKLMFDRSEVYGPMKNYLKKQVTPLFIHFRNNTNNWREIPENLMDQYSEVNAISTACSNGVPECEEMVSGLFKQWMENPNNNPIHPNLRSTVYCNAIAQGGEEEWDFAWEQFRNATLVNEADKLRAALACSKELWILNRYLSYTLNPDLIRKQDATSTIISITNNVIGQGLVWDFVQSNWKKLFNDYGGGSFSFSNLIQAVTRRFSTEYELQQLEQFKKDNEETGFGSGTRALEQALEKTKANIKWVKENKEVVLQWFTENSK
# Experiment: not given
row,"tumor volume of PC3 xenografts at day 35, mice treated with 40 mg/kg cyc-LHSPW t.i.w. x4 (saline and cyc-NGR arms >1000 mm^3)",Binder
1,309 mm^3,B1
